Legend:
Fer (mouse) = test: phosphorylation enrichment, bacterial display (enrichment ratio); higher = better substrate or ligand; peptides without Tyr show the background
FGFR1 = FGFR1 (UniProt P11362); test: as above
Fyn = Fyn (UniProt P06241); test: as above
Jak2 = Jak2 (UniProt O60674); test: as above
AncSZ = test: as above
EPHB1 = EPHB1 (UniProt P54762); test: as above
EPHB2 = EPHB2 (UniProt P29323); test: as above
FGFR3 = FGFR3 (UniProt P22607); test: as above
Hck = Hck (UniProt P08631); test: as above
Fes = Fes (UniProt P07332); test: as above
Fes, sequence (P07332 whole entry, looked up): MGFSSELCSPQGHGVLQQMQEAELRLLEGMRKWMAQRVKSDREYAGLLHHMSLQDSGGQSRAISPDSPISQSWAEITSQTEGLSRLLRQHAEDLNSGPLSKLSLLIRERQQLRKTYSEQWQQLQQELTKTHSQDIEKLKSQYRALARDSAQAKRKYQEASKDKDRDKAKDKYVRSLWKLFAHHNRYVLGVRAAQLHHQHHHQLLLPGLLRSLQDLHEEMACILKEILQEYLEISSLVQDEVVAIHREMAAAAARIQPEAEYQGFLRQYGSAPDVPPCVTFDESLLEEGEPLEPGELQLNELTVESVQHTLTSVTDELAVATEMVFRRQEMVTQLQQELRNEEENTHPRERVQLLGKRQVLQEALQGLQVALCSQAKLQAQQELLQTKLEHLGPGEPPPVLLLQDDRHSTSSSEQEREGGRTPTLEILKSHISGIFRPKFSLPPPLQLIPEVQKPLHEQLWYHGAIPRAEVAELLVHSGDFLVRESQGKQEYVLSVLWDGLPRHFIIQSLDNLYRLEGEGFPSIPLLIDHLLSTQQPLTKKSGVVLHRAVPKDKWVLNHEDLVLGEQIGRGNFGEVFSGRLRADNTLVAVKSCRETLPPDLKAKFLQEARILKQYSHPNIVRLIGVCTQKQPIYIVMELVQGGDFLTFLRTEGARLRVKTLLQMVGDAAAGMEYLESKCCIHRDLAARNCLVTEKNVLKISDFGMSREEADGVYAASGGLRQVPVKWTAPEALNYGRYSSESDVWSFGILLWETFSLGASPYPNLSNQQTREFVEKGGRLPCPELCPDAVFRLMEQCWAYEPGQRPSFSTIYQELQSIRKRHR

MERTK = MERTK (UniProt Q12866); test: as above
MERTK, sequence (Q12866 whole entry, looked up): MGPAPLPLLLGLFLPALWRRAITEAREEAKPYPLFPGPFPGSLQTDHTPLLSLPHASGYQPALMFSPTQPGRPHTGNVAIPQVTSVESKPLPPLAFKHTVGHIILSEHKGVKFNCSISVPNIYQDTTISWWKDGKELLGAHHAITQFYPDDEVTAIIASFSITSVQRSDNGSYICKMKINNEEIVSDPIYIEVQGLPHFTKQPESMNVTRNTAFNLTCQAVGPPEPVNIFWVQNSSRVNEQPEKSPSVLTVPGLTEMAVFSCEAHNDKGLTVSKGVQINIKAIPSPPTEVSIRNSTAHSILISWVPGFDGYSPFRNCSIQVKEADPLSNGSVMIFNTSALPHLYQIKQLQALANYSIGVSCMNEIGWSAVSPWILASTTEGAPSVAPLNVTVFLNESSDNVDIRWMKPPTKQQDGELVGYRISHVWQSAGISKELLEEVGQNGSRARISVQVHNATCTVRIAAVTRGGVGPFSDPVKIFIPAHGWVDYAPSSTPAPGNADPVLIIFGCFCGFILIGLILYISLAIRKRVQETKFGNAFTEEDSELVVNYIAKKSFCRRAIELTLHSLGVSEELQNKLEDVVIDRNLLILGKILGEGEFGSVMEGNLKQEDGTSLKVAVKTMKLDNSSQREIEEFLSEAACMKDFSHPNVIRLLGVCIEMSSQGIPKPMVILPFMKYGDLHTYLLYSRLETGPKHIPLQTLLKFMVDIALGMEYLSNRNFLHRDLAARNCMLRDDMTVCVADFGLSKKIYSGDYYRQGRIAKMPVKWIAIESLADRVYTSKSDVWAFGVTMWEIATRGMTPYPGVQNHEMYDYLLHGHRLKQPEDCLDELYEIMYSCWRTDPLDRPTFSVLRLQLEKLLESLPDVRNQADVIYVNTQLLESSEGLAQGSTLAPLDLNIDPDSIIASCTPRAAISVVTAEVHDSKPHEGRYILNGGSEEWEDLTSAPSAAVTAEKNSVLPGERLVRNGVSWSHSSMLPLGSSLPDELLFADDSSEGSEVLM

c-Src = test: as above
c-Abl (mouse) = test: as above
SHP2-C SH2 = test: SH2 binding enrichment of the phosphorylated peptide, bacterial display (enrichment ratio); higher = better substrate or ligand; peptides without Tyr show the background
Grb2 SH2 = Grb2 SH2 (UniProt P62993); test: as above
Grb2 SH2, sequence (P62993 whole entry, looked up): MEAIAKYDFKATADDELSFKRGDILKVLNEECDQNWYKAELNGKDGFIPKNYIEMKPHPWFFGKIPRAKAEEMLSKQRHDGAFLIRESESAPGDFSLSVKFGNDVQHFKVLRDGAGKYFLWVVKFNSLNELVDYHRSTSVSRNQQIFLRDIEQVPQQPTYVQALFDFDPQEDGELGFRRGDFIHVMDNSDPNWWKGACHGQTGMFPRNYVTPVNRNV

c-Src SH2 = test: as above
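For SH2 binding enrichment of the phosphorylated peptide, bacterial display in this document: peptide library displayed on the E. coli surface as eCPX fusions, selected cells deep-sequenced, score is each peptide's frequency after selection divided by its frequency in the input.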
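For phosphorylation enrichment, bacterial display in this document: 11-residue human phosphosite peptides and single-mutation variants displayed on the E. coli surface, counted by deep sequencing, each peptide's frequency after selection divided by its frequency in the unselected input library; frequency after pTyr selection over input frequency; kinase dosed for 20-30% of maximal phosphorylation in three min.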

FGFR3, sequence (P22607 whole entry, looked up): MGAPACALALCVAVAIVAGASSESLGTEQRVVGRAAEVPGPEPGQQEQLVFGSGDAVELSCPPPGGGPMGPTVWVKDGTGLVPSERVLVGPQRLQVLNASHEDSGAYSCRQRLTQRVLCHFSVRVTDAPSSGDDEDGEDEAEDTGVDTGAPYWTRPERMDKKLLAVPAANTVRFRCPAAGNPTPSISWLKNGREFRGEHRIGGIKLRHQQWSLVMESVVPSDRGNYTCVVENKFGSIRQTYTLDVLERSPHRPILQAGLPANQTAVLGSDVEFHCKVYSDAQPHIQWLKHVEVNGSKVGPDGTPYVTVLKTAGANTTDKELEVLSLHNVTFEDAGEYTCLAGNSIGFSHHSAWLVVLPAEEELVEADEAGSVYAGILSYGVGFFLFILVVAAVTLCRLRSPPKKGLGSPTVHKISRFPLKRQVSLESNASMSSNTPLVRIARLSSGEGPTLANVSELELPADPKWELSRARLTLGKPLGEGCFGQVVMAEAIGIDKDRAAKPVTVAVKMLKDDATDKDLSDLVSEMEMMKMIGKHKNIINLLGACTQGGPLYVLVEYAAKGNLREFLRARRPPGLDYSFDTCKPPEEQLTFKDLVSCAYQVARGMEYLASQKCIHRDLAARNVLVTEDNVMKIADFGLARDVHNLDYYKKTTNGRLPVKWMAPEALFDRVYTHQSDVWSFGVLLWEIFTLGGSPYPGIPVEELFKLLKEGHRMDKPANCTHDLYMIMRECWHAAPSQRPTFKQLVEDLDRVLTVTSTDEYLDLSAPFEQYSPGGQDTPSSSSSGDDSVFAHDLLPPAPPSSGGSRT
EPHB1, sequence (P54762 whole entry, looked up): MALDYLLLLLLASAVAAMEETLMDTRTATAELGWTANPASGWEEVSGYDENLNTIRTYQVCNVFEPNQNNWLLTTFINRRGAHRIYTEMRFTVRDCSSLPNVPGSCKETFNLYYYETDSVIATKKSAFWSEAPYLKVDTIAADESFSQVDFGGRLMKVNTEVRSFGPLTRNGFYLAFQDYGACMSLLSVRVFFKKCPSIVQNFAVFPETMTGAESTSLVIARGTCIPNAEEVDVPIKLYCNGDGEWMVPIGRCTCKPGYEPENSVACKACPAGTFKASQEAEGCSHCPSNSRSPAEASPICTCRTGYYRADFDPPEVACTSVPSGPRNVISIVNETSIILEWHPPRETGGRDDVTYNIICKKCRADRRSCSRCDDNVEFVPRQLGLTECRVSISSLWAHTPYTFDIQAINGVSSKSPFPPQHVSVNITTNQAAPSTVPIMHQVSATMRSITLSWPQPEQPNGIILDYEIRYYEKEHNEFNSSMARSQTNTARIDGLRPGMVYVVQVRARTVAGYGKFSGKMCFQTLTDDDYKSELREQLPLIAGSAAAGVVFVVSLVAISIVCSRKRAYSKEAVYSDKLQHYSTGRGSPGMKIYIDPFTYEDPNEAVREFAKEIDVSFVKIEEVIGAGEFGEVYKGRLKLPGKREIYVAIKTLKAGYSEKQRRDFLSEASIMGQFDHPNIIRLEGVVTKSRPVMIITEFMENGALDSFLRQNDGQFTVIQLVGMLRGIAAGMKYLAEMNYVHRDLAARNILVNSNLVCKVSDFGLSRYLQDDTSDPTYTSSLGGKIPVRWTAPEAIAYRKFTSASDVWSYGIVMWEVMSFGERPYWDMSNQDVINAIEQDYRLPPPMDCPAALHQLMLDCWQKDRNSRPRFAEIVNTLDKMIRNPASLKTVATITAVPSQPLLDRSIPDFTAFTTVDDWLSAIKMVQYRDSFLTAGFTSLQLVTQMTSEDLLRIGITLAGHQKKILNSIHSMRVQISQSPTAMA
Jak2, sequence (O60674 whole entry, looked up): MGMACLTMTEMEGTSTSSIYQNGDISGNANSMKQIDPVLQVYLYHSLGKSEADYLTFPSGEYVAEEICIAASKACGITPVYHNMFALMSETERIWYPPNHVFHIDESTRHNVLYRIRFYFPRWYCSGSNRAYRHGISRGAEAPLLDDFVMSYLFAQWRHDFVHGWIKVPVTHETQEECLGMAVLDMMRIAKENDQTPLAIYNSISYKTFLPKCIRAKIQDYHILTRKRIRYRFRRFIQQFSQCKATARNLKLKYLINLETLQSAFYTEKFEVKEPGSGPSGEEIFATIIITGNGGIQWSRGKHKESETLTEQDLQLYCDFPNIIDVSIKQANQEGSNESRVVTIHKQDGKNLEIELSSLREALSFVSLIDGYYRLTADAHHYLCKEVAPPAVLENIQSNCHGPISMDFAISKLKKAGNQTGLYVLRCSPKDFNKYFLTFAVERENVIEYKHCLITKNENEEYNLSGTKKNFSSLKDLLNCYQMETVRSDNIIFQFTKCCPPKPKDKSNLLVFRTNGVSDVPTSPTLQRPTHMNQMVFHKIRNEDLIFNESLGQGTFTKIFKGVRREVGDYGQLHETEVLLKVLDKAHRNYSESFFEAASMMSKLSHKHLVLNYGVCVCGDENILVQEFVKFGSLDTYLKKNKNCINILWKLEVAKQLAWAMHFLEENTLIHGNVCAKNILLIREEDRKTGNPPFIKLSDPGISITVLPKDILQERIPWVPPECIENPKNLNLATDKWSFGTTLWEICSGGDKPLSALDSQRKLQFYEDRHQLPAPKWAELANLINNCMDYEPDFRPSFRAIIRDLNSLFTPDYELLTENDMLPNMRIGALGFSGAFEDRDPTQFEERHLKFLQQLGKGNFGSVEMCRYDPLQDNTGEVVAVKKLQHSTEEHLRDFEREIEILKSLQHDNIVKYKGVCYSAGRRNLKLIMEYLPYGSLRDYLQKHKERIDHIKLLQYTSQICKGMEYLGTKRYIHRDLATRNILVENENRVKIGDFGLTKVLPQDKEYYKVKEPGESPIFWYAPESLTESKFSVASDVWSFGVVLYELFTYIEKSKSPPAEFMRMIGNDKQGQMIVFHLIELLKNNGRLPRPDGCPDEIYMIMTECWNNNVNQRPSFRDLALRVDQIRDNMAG

Sequence YQSKHYACIRQ [TIMP3_Y182] has a phosphorylation enrichment (Fer (mouse)) of 0.554, a phosphorylation enrichment (FGFR1) of 0.52 and a phosphorylation enrichment (Fyn) of 0.418. For the same sequence, the phosphorylation enrichment (Jak2) was 0.626, the phosphorylation enrichment (AncSZ) was 0.673 and the phosphorylation enrichment (EPHB1) was 0.462. It also gave a phosphorylation enrichment (EPHB2) of 0.451, a phosphorylation enrichment (FGFR3) of 0.45 and a phosphorylation enrichment (Hck) of 0.55. The phosphorylation enrichment (Fes) was 0.762, the phosphorylation enrichment (MERTK) was 0.534 and the phosphorylation enrichment (c-Src) was 0.406. The phosphorylation enrichment (c-Abl (mouse)) was 0.648, the SH2 binding enrichment (SHP2-C SH2) was 6.64 and the SH2 binding enrichment (Grb2 SH2) was 1.21. For the same sequence, the SH2 binding enrichment (c-Src SH2) was 2.08.
Sequence YRAPGYREVVI [TNS2_Y673] has a phosphorylation enrichment (Fer (mouse)) of 0.432, a phosphorylation enrichment (FGFR1) of 0.52 and a phosphorylation enrichment (Fyn) of 0.474. It also gave a phosphorylation enrichment (Jak2) of 0.509, a phosphorylation enrichment (AncSZ) of 0.587 and a phosphorylation enrichment (EPHB1) of 0.445. For the same sequence, the phosphorylation enrichment (EPHB2) was 0.43, the phosphorylation enrichment (FGFR3) was 0.443 and the phosphorylation enrichment (Hck) was 0.439. For the same sequence, the phosphorylation enrichment (Fes) was 0.634, the phosphorylation enrichment (MERTK) was 0.403 and the phosphorylation enrichment (c-Src) was 0.419. For the same sequence, the phosphorylation enrichment (c-Abl (mouse)) was 2.11, the SH2 binding enrichment (SHP2-C SH2) was 0.889 and the SH2 binding enrichment (Grb2 SH2) was 1.11. For the same sequence, the SH2 binding enrichment (c-Src SH2) was 0.633.
With YRDALYKFMVD [PHEX_Y250] the phosphorylation enrichment (Fer (mouse)) was 0.678, the phosphorylation enrichment (FGFR1) was 0.869 and the phosphorylation enrichment (Fyn) was 0.61. It also gave a phosphorylation enrichment (Jak2) of 1.11, a phosphorylation enrichment (AncSZ) of 1.14 and a phosphorylation enrichment (EPHB1) of 1.24. For the same sequence, the phosphorylation enrichment (EPHB2) was 0.797, the phosphorylation enrichment (FGFR3) was 1.25 and the phosphorylation enrichment (Hck) was 0.712. For the same sequence, the phosphorylation enrichment (Fes) was 1.33, the phosphorylation enrichment (MERTK) was 1.2 and the phosphorylation enrichment (c-Src) was 0.624. The phosphorylation enrichment (c-Abl (mouse)) was 0.803, the SH2 binding enrichment (SHP2-C SH2) was 0.665 and the SH2 binding enrichment (Grb2 SH2) was 0.846. The SH2 binding enrichment (c-Src SH2) was 0.572.
In the case of YRQLPYCPSVE [CTNND2_Y508_Q507P], the phosphorylation enrichment (Fer (mouse)) is reported as 0.804, the phosphorylation enrichment (FGFR1) is reported as 1.48 and the phosphorylation enrichment (Fyn) is reported as 0.647. The phosphorylation enrichment (Jak2) was 1.41, the phosphorylation enrichment (AncSZ) was 1.51 and the phosphorylation enrichment (EPHB1) was 0.692. For the same sequence, the phosphorylation enrichment (EPHB2) was 0.747, the phosphorylation enrichment (FGFR3) was 1.41 and the phosphorylation enrichment (Hck) was 1.09. It also gave a phosphorylation enrichment (Fes) of 1.53, a phosphorylation enrichment (MERTK) of 0.728 and a phosphorylation enrichment (c-Src) of 0.881. For the same sequence, the phosphorylation enrichment (c-Abl (mouse)) was 5.88, the SH2 binding enrichment (SHP2-C SH2) was 0.585 and the SH2 binding enrichment (Grb2 SH2) was 0.686. The SH2 binding enrichment (c-Src SH2) was 0.494.
YRTGHYLCNAC [GATA1_Y223_D218Y] was tested, and the phosphorylation enrichment (Fer (mouse)) was 0.271, the phosphorylation enrichment (FGFR1) was 0.412 and the phosphorylation enrichment (Fyn) was 0.383. The phosphorylation enrichment (Jak2) was 0.424, the phosphorylation enrichment (AncSZ) was 0.477 and the phosphorylation enrichment (EPHB1) was 0.341. The phosphorylation enrichment (EPHB2) was 0.415, the phosphorylation enrichment (FGFR3) was 0.41 and the phosphorylation enrichment (Hck) was 0.376. The phosphorylation enrichment (Fes) was 0.506, the phosphorylation enrichment (MERTK) was 0.355 and the phosphorylation enrichment (c-Src) was 0.31. The phosphorylation enrichment (c-Abl (mouse)) was 0.524, the SH2 binding enrichment (SHP2-C SH2) was 1.12 and the SH2 binding enrichment (Grb2 SH2) was 1.01. It also gave an SH2 binding enrichment (c-Src SH2) of 0.968.
Work on YSDPSYVKQME [CDC5L_Y464] yielded a phosphorylation enrichment (Fer (mouse)) of 0.409, a phosphorylation enrichment (FGFR1) of 0.985 and a phosphorylation enrichment (Fyn) of 0.434. For the same sequence, the phosphorylation enrichment (Jak2) was 0.557, the phosphorylation enrichment (AncSZ) was 1.1 and the phosphorylation enrichment (EPHB1) was 0.392. The phosphorylation enrichment (EPHB2) was 0.57, the phosphorylation enrichment (FGFR3) was 0.716 and the phosphorylation enrichment (Hck) was 0.593. The phosphorylation enrichment (Fes) was 0.817, the phosphorylation enrichment (MERTK) was 0.578 and the phosphorylation enrichment (c-Src) was 0.473. It also gave a phosphorylation enrichment (c-Abl (mouse)) of 0.537, an SH2 binding enrichment (SHP2-C SH2) of 0.608 and an SH2 binding enrichment (Grb2 SH2) of 0.8. For the same sequence, the SH2 binding enrichment (c-Src SH2) was 1.05.
Sequence YVFSFYHAFSG [ACTN4_Y265_S262F] has a phosphorylation enrichment (Fer (mouse)) of 0.69, a phosphorylation enrichment (FGFR1) of 0.921 and a phosphorylation enrichment (Fyn) of 0.692. For the same sequence, the phosphorylation enrichment (Jak2) was 1.44, the phosphorylation enrichment (AncSZ) was 1.37 and the phosphorylation enrichment (EPHB1) was 1.15. For the same sequence, the phosphorylation enrichment (EPHB2) was 0.825, the phosphorylation enrichment (FGFR3) was 1.13 and the phosphorylation enrichment (Hck) was 0.835. It also gave a phosphorylation enrichment (Fes) of 1.43, a phosphorylation enrichment (MERTK) of 3.14 and a phosphorylation enrichment (c-Src) of 0.964. For the same sequence, the phosphorylation enrichment (c-Abl (mouse)) was 1.1, the SH2 binding enrichment (SHP2-C SH2) was 1.23 and the SH2 binding enrichment (Grb2 SH2) was 1.19. The SH2 binding enrichment (c-Src SH2) was 0.889.

— the supplement of paper PMC10065799, “High-throughput profiling of sequence recognition by tyrosine kinases and SH2 domains using bacterial peptide display” (eLife, 2023)
